Tested on: Naïve CD4 T-cells
Test: In vitro T-cell differentiation in DC conditioned medium, IL-17/IL-10 in supernatants by ELISA
Format: cell-based, C57BL/6J mice
Settings: IL-6 supplemented to DCCM-apoptotic B-cells
Description: Bone marrow (BM)-derived GM-CSF DC cultures were grown in RPMI supplemented with GM-CSF and 5% foetal bovine serum (FBS), plus 100 μg/mL penicillin, 100 μg/mL streptomycin, 2 mM L-glutamine, 10 mM HEPES, 1 nM sodium pyruvate, 1×MEM nonessential amino acids, and 2.5 μM β-mercaptoethanol (all from Sigma-Aldrich, St. Louis, Mo.), as previously dcseribed^1. Semi-adherent cells were harvested on ice on day 5 and re-plated immediately in fresh GM-CSF medium at 1×10^6 cells/well in 24-well tissue culture-treated plates. Soluble or phagocytic stimuli were added right away to the plates in the same medium and the cells were centrifuged for 2 min at 2000 rpm. Supernatants (conditioned medium, CM) were collected after 18 hours. LPS (from E. coli, serotype 055:B5, L-2880) was purchased from Sigma-Aldrich. BMDC were treated with various doses of soluble LPS or 2:1 A20 LPS blasts:DC to titrate the LPS such that levels of IL-6 produced by DC in response to these stimuli was similar. Soluble LPS was used at a final concentration of 1 ng/mL. The A20 B-cell line was obtained from the ATCC (TIB-208). A20 LPS blasts were prepared by culturing A20 cells at 1×10^6 cells/mL, 3 mL/well in 6-well tissue culture plates for four days in RPMI medium supplemented with 10% FBS, with 100 μg/mL penicillin, 100 μg/mL streptomycin, 2 mM L-glutamine, 10 mM HEPES, 1 nM sodium pyruvate, plus 25 μg/mL LPS, as previously described in Blander, J. M. and Medzhitov, R. (2004) Science 304(5673):1014. […] Cells were centrifuged, counted, and apoptosis was induced by UV irradiation at 350 mJ. […]
Naïve CD4 T cells were isolated first by sorting with MACS® CD4^+ beads (Miltenyi Biotech, Auburn, Calif.) according to manufacturer's instructions and then by fluorescence activated cell sorting (FACS) using a MoFlo™, Vantage, or Influx™ cell sorter for CD25^−CD44^lowCD62L^high cells using allophycocyanin (APC)-conjugated anti-CD25 monoclonal antibody (mAb) (clone PC61.5), FITC-conjugated CD62L mAb (clone MEL-14), and PE-Cy5-conjugated CD44 mAb (clone IM7) (all from eBioscience™, San Diego, Calif.). […]

B1: IL-6: cytokine interleukin-6 (Peprotech), 50 ng/mL (protein, UniProt P08505 25-211, looked up)
Interleukin-6: FPTSQVRRGDFTEDTTPNRPVYTTSQVGGLITHVLWEIVEMRKELCNGNSDCMNNDDALAENNLKLPEIQRNDGCYQTGYNQEICLLKISSGLLEYHSYLEYMKNNLKDNKKDKARVLQRDTETLIHIFNQEVKDLHKIVLPTPISNALLTDKLESQKEWLRTKTIQFILKSLEEFLKVTLRSTRQT
IL-17 production: restored IL-17 production

Reference: patent publication US8628762B2, “T-helper cell type 17 lineage-specific adjuvants, compositions and methods” (Icahn School of Medicine at Mount Sinai, priority 2008, dated 2014)
